Experimental data from patent US20240317858A1 (Adimab, published 2024).

Key:
[1] = target: T1, Human CD3εδ Fc heterodimer (Hu CD3ε Fc + CD3δ Fc-HIS) (human, UniProt P07766 22-126; P04234 22-100); assay: SPR (Biacore), Fab over Hu CD3εδ-Fc; sensorgram inset tied by a line to the filled square (parent antibody) labelled A001; pH not given on the sheet
T1 construct: range 22-126;range 22-100; Made in HEK 293 cells with a heterologous signal peptide; also called Hu CD3εδ-Fc; CD3εδ Fc-HIS heterodimer; not shown: Fc; Fc followed by HIS tag
T1 sequence (P07766 22-126, stated change not applied, form in doubt, chain 1 of 2): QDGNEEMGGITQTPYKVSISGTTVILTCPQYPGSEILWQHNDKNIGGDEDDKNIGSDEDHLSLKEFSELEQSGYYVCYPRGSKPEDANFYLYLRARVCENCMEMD
T1 sequence (P04234 22-100, stated change not applied, form in doubt, chain 2 of 2): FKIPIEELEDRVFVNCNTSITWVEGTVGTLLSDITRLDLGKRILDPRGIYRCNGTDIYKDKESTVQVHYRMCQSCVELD

[2] = target: T2, Rhesus CD3εδ Fc heterodimer (rhesus); assay: BLI (Octet), Fab monovalent, pH 7.4
T2 construct: extracellular domain; also called Rh CD3εδ-Fc
Protocol: (§1) ForteBio KD measurements (Biolayer interferometry; BLI). ForteBio affinity measurements were performed generally as previously described (Estep, P., et al., High throughput solution-based measurement of antibody-antigen affinity and epitope binning. MAbs, 2013. 5(2): p. 270-8.). Briefly, ForteBio affinity measurements were performed by loading IgGs or CD3εδ Fe-HIS heterodimer onto AHC sensors. Sensors were equilibrated off-line in assay buffer for 30 min and then monitored on-line for 60 seconds for baseline establishment. Sensors with loaded IgGs were exposed to 100 nM antigen (e.g., CD3) for 3 min, afterwards they were transferred to assay buffer for 10 min for off-rate measurement. Sensors loaded with CD3εδ Fe-HIS heterodimer were exposed to 100 nM anti-CD3 Fab for 3 min, afterwards they were transferred to assay buffer for 3 min or 10 min for off-rate measurement. Kinetics were analyzed using the 1:1 binding model. For measuring binding at different pHs, measurements were performed at pre-determined pHs (e.g., pH 7.4 and pH 6.0).
(§2) Anti-CD3 antibodies A001-A005, V002, V004, V007, V009, V010, V013, and V014-V019 were produced as IgG1s in CHO cells, and Fab fragments were generated from IgG1 antibodies by papain digestion and purification as described in Example 2. Human, cynomolgus, rhesus, and mouse CD3εδ Fc heterodimers were produced, and monovalent binding affinity and avidity at pH 7.4 and pH 6.0 were measured using the Octet® HTX instrument (ForteBio) as described in Example 2.

[3] = target: T1, Human CD3εδ Fc heterodimer (Hu CD3ε Fc …); assay: BLI (Octet), Fab monovalent, pH 7.4
Protocol: as §1, §2

[4] = target: T3, Cynomolgus CD3εδ Fc heterodimer (Cy CD3ε Fc + CD3δ Fc-HIS) (cynomolgus, UniProt Q95LI5 22-117; Q95LI8 22-100); assay: BLI (Octet), Fab monovalent, pH 7.4
T3 construct: range 22-117;range 22-100; Made in HEK 293 cells with a heterologous signal peptide; also called Cy CD3εδ-Fc; cyno CD3εδ Fc; not shown: Fc; Fc followed by HIS tag
T3 sequence (Q95LI5 22-117, stated change not applied, form in doubt, chain 1 of 2): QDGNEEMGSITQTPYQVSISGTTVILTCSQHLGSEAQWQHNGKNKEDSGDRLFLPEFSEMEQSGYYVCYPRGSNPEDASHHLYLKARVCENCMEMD
T3 sequence (Q95LI8 22-100, stated change not applied, form in doubt, chain 2 of 2): as the sequence (P04234 22-100, stated change not applied, form in doubt, chain 2 of 2) above, with I5V, N15K, I20V, S32T, D33N, I34N, T64A, S74N counted along it
Protocol: as §1, §2

[5] = target: T1, Human CD3εδ Fc heterodimer (Hu CD3ε Fc …); assay: BLI (Octet), CD3εδ Fc on AHC sensor, 100 nM Fab
Protocol: (§3) Affinity of the anti-CD3 antibodies for CD3 was determined by measuring their kinetic constants (kₒₙ, koff, KD) on ForteBio Octet®. ForteBio affinity measurements were performed generally as previously described (Estep et al., MAbs. 2013 5(2):270-8). […] Sensors were equilibrated off-line in assay buffer for 30 minutes and then monitored on-line for 60 seconds for baseline establishment. For monovalent binding measurement, sensors with loaded CD3εδ Fc were exposed to 100 nM anti-CD3 Fab, as further described in Example 2 below] for 3 minutes, afterwards they were transferred to assay buffer for 3 minutes for off-rate measurement. Kinetics data were fit using a 1:1 binding model in the data analysis software provided by ForteBio.

[6] = target: T3, Cynomolgus CD3εδ Fc heterodimer (Cy …); assay: BLI (Octet), CD3εδ Fc on AHC sensor, 100 nM Fab
Protocol: as §3

[7] = target: T1, Human CD3εδ Fc heterodimer (Hu CD3ε Fc …); assay: SPR (Biacore), Fab over immobilized CD3εδ Fc, pH 6.0
Protocol: (§4) Anti-CD3 antibodies A001-A005, V002, V004, V007, V009, V010, V013, and V014-V019 were produced in CHO cells, and Fab fragments were generated from IgG1 antibodies by papain digestion and purification as described in Example 2. Monovalent binding affinity at pH 7.4 and pH 6.0 was measured via surface plasmon resonance (SPR). Briefly, human or cynomolgus CD3εδ Fe heterodimer produced as described in Example 2 was immobilized to a CM5 sensor chip in a Biacore® X100 (Cytiva, previously GE Healthcare Life Sciences) to a response level of ˜500 RUs. Fabs were then injected at 3-fold increasing concentrations, ranging from 0.74-180 nM. The sensor chip was doubly regenerated between cycles using 0.35 M EDTA and 0.1 M NaOH. The resulting data were double reference subtracted and fit to a 1:1 binding model using Biacore® Evaluation Software.

[8] = target: T3, Cynomolgus CD3εδ Fc heterodimer (Cy …); assay: as above
Protocol: as §4

[9] = target: T1, Human CD3εδ Fc heterodimer (Hu CD3ε Fc …); assay: BLI (Octet), Fab monovalent, pH 6.0
Protocol: as §1, §2

[10] = target: T3, Cynomolgus CD3εδ Fc heterodimer (Cy …); assay: BLI (Octet), Fab monovalent, pH 6.0
Protocol: as §1, §2

[11] = target: T1, Human CD3εδ Fc heterodimer (Hu CD3ε Fc …); assay: SPR (Biacore), Fab over immobilized CD3εδ Fc, pH 7.4
Protocol: as §4

[12] = target: T3, Cynomolgus CD3εδ Fc heterodimer (Cy …); assay: as above
Protocol: as §4

[13] = target: T4, Human CD3 on CD3+ Jurkat cells (human, UniProt P07766 23-207); assay: flow cytometry, Fab titration
T4 construct: whole, on cells; Target is the endogenous CD3 complex on cells; also called Human CD3+ Jurkat cells
T4 sequence (P07766 23-207): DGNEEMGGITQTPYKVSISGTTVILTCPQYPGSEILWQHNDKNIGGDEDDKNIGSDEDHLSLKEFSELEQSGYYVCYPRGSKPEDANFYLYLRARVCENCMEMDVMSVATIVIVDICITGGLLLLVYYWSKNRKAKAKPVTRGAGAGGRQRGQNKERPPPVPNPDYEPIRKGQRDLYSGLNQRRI
Protocol: Further FACS analysis was conducted using 3-fold serial dilutions of anti-CD3 antibody Fab fragments. Fab fragments were generated from whole IgG antibodies by papain digestion and purified over KappaSelect or CaptureSelect IgG-CH1 (GE Healthcare LifeSciences) before preparation of serial dilutions. Binding to human CD3+ Jurkat cells and Cynomolgus monkey CD3 HSC-F cells was assessed with each diluted sample and results were used to build a titration curve and calculate half maximal effective concentration (EC50) values for Fab binding.

[14] = target: T1, Human CD3εδ Fc heterodimer (Hu CD3ε Fc …); assay: SPR (Biacore), Fab over Hu CD3εδ-Fc; sensorgram inset labelled V013, tied by a line to an open square (PSR-optimized antibody); pH not given on the sheet
[15] = target: T1, Human CD3εδ Fc heterodimer (Hu CD3ε Fc …); assay: SPR (Biacore), Fab over Hu CD3εδ-Fc; sensorgram inset labelled V007, tied by a line to an open square (PSR-optimized antibody); pH not given on the sheet
[16] = target: T1, Human CD3εδ Fc heterodimer (Hu CD3ε Fc …); assay: SPR (Biacore), Fab over Hu CD3εδ-Fc; sensorgram inset tied by a line to the filled square (parent antibody) labelled A002; pH not given on the sheet

Row | Binder | Kd [1] | Kd [2] | Kd [3] | Kd [4] | Kd [5] | Kd [6] | Kd [7] | Kd [8] | Kd [9] | Kd [10] | Kd [11] | Kd [12] | EC50 [13] | Kd [14] | Kd [15] | Kd [16]
1 | Antibody No. A001 (ADI-26906) Fab (Fab, V domains shown, Fab by papain digestion of the IgG1) VH: QVQLVQSGAEVKKPGASVKVSCKASGFNIKDYYMHWVRQAPGQRLEWMGWIDLENANTIYDAKFQGRVTITRDTSASTAYMELSSLRSEDTAVYYCARDAYGRYFYDVWGQGTLVTVSS VL: DIVMTQSPDSLAVSLGERATINCKSSQSLLNARTGKNYLAWYQQKPGQPPKLLIYWASTRESGVPDRFSGSGSGTDFTLTISSLQAEDVAVYYCKQSYSRRTFGGGTKVEIK | 2 nM | 6.1 nM | 6 nM | 5.9 nM | 2.81 nM | 2.9 nM | 1.3 nM | 1.9 nM | 5.8 nM | 5.9 nM | 1.1 nM | 1.1 nM |  |  |  | 
2 | Antibody No. V013 (ADI-70330) Fab (Fab, V domains shown, Fab by papain digestion of the IgG1) VH: QVQLVQSGAEVKKPGASVKVSCKASGFNIDDYYMHWVRQAPGQRLEWIGWIDLENANTVDDAKFQGRVTITRDTSASTAYMELSSLRSEDTAVYYCARDAYGRYFYDVWGQGTLVTVSS VL: DIVMSQSPDSLAVSLGERATINCKSSQSLLNARTGKNYLAWYQQKPGQPPKLLIYWASTRSSGVPDRFSGSGSGTDFTLTISSLQAEDVAVYYCVQSYFRRTFGGGTKVEIK |  | 2.5 nM | 2.4 nM | 2.4 nM | 1.16 nM | 1.23 nM | 1.6 nM | 0.27 nM | 1.6 nM | 1.9 nM | 0.18 nM | 0.22 nM |  | 0.681 nM |  | 
3 | Antibody No. V007 (ADI-67450) Fab (Fab, V domains shown, Fab by papain digestion of the IgG1) VH: QVQLVQSGAEVKKPGASVKVSCKASGFNIDDYYMHWVRQAPGQRLEWMGWIDLENANTIDDAKFQGRVTITRDTSASTAYMELSSLRSEDTAVYYCARDAYGRYFYDVWGQGTLVTVSS VL: DIVMTQSPDSLAVSLGERATINCKSSQSLLNARTGKNYLAWYQQKPGQPPKLLIYWASTRESGVPDRFSGSGSGTDFTLTISSLQAEDVAVYYCKQSYSRRTFGGGTKVEIK |  | 9.2 nM | 7.4 nM | 8.7 nM | 5.39 nM | 5.03 nM | 2.8 nM | 2.1 nM | 6.9 nM | 6.9 nM | 4 nM | 2.7 nM |  |  | 3.7 nM | 

Stronger by Kd [5], values ahead:

Row | Kd [1] | Kd [2] | Kd [3] | Kd [4] | Kd [5] | Kd [6] | Kd [7] | Kd [8] | Kd [9] | Kd [10] | Kd [11] | Kd [12] | EC50 [13] | Kd [14] | Kd [15] | Kd [16] | Binder
4 |  |  |  |  | 0.82 nM | 0.86 nM |  |  |  |  |  |  | 2.77 nM |  |  |  | Antibody No. V011 (ADI-70328) Fab (Fab, V domains shown, Fab by papain digestion of the IgG1) VH: QVQLVQSGAEVKKPGASVKVSCKASGFNIDDYYMHWVRQAPGQRLEWIGWIDLENDNTVYDAKFQGRVTITRDTSASTAYMELSSLRSEDTAVYYCARDAYGRYFYDVWGQGTLVTVSS VL: DIVMSQSPDSLAVSLGERATINCKSSQSLLNARTGKNYLAWYQQKPGQPPKLLIYWASTRSSGVPDRFSGSGSGTDFTLTISSLQAEDVAVYYCVQSYFRRTFGGGTKVEIK
5 |  | 1.2 nM | 1 nM | 1.3 nM | 0.5 nM | 0.57 nM | 0.31 nM | 0.2 nM | 1.3 nM | 1.7 nM | 0.059 nM | 0.076 nM |  |  |  | 0.244 nM | Antibody No. A002 (ADI-50024) Fab (Fab, V domains shown, Fab by papain digestion of the IgG1) VH: QVQLVQSGAEVKKPGASVKVSCKASGFNIKDYYMHWVRQAPGQRLEWIGWIDLENANTVYDAKFQGRVTITRDTSASTAYMELSSLRSEDTAVYYCARDAYGRYFYDVWGQGTLVTVSS VL: DIVMSQSPDSLAVSLGERATINCKSSQSLLNARTGKNYLAWYQQKPGQPPKLLIYWASTRSSGVPDRFSGSGSGTDFTLTISSLQAEDVAVYYCVQSYFRRTFGGGTKVEIK
